In publication PMC4220973, “Structural insights into the human RyR2 N-terminal region involved in cardiac arrhythmias” (Acta Crystallographica Section D: Biological Crystallography, 2014):

Biological target: the molecule itself
Experiment: SEC; analytical size-exclusion chromatography at 4°C; self-association, monomer to dimer

B1: hRyR2^1-606 I419F mutant (domain or fragment, human, UniProt Q92736 1-606, looked up)
chain: MADGGEGEDEIQFLRTDDEVVLQCTATIHKEQQKLCLAAEGFGNRLCFLESTSNSKNVPPDLSICTFVLEQSLSVRALQEMLANTVEKSEGQVDVEKWKFMMKTAQGGGHRTLLYGHAILLRHSYSGMYLCCLSTSRSSTDKLAFDVGLQEDTTGEACWWTIHPASKQRSEGEKVRVGDDLILVSVSSERYLHLSYGNGSLHVDAAFQQTLWSVAPISSGSEAAQGYLIGGDVLRLLHGHMDECLTVPSGEHGEEQRRTVHYEGGAVSVHARSLWRLETLRVAWSGSHIRWGQPFRLRHVTTGKYLSLMEDKNLLLMDKEKADVKSTAFTFRSSKEKLDVGVRKEVDGMGTSEIKYGDSVCYIQHVDTGLWLTYQSVDVKSVRMGSIQRKAIMHHEGHMDDGISLSRSQHEESRTARVFRSTVFLFNRFIRGLDALSKKAKASTVDLPIESVSLSLQDLIGYFHPPDEHLEHEDKQNRLRALKNRQNLFQEEGMINLVLECIDRLHVYSSAAHFADVAGREAGESWKSILNSLYELLAALIRGNRKNCAQFSGSLDWLISRLERLEASSGILEVLHCVLVESPEALNIIKEGHIKSIISLLDKHGR
notes: human ryanodine receptor 2 (hRyR2), N-terminal region, amino acids 1-606, with the cardiac disease-associated mutation I419F in the central helix; Mixture of dimer and monomer by SEC at 4°C (65:35%); Construct details (host, tags) are in Borko et al. (2013); source: recombinant, purified; substitution mutant prepared with the QuikChange protocol
percent dimer (dimer:monomer ratio): 65% | stoichiometry N: 2
